Measured values as given in patent publication US20130109846A1 (published 2013).

B1: 1h-82 (other)
VL: DIQMTQSPSSLSASVGDRVTITCRASQDIGLNLLWYQQKPGKAPTLLIYWSSMLQSGVPSRFSGSGSGTDFTLTISSLQPEDFATYYCQQGRMRPFTFGQGTKVEIKR
B2: 1h-86 (other)
VL: DIQMTQSPSSLSASVGDRVTITCRASQDIGQSLVWYQQKPGKAPKLLIYWASMLQSGVPSRFSGSGSGTDFTLTISSLQPEDFATYYCQQVMRRPFTFGQGTKVEIKR
B3: 1h-90 (other)
VL: DIQMTQSPSSLSASVGDRVTITCRASQTIGHGLVWYQQKPGKAPKLLIYWSSHLQSGVPSRFSGSGSGTDFTLTISSLQPEDFATYYCQQTLRTPFTFGQGTKVEIKR
B4: 1h-207 (other)
VL: DIQMTQSPSSLSASVGDRVTITCRASQYIGTSLAWYQQKPGKAPKLLIYHSSGLQSGVPSRFSGSGSGTDFTLTISSLQPEDFATYYCQQTALRPFTFGQGTKVEIKR
B5: 1h-109 (other)
VL: DIQMTQSPSSLSASVGDRVTITCRASQDIGASLLWYQQKPGKAPKLLIYFSSMLQSGVPSRFSGSGSGTDFTLTISSLQPEDFATYYCQQSGMRPFTFGQGTKVEIKR
B6: 1h-108 (other)
VL: DIQMTQSPSSLSASVGDRVTITCRASQYIGTALNWYQQKPGKAPKLLIYRRSHLQSGVPSRFSGSGSGTDFTLTISSLQPEDFATYYCQQIALTPYTFGQGTKVEIKR
B7: 1h-108-5 (other)
VL: DIQITQSPSSLSASVGDRVTITCRASQYIGTALNWYQQKPGKAPELLIYRGSHLQSGVPSRFSGSGSGTDFTLTISSLQPEDFVTYYCQQIALTPYTFGQGTKVEIKR
B8: 1h-36 (other)
VL: DIQMTQSPSSLSASVGDRVTITCRASRDIALDLLWYQQKPGKAPKLLIKGWSGLQSGVPSRFSGSGSGTDFTLTISSLQPEDFATYYCAQGWGRPVTFGQGTKVEIKR
B9: 1h-110 (other)
VL: DIQMTQSPSSLSASVGDRVTITCRASRDIGHMLNWYQQKPGKAPKLLIWFGSVLQSGVPSRFSGSGSGTDFTLTISSLQPEDFATYYCVQGRLRPPTFGQGTKVEIKR
B10: 1h-84 (other)
VL: DIQMTQSPSSLSASVGDRVTITCRASQSIGKGLMWYQQKPGKAPKLLIYWASMLQSGVPSRFSGSGSGTDFTLTISSLQPEDFATYYCQQSLRTPFTFGQGTEVEIKR
B11: 1h-112 (other)
VL: DIQMTQSPSSLSASVGDRVTITCRASQHINASLGWYQQKPGKAPRLLIYWASQLQSGVPSRFSGSGSGTDFTLTISSLQPEDFATYYCQQMVRTPFTFGQGTKVEIKR
B12: 1h-238 (other)
VL: DIQMTQSPSSLSASVGDRVTITCRASQHINASLGWYQQKPGKAPKLLIYWASQLQSGVPSRFSGSGSGTDFTLTISSLQPEDFATYYCQQMVRTPFTFGQGTKVEIKR
B13: 1h-203 (other)
VL: DIQMTQSPSSLSASVGDRVTITCRASQPIGSVLAWYQQKPGKAPKLLIYFSSILQSGVPSRFSGSGSGTDFTLTISSLQPEDFATYYCQQALRSPFTFGQGTKVEIKR
B14: 1h-85 (other)
VL: DIQMTQSPSSLSASVGDRVTITCRASQPIGASLLWYQQKPGKAPRLLIYWGSLLQSGVPSRFSGSGSGTDFTLTISSLQPEDLATYYCQQSLRTPFTFGQGTKVEIKR
B15: 1h-116 (other)
VL: DIQMTQSPSSLSASVGDRVTITCRASQSIYPFLEWYQQKPGKAPRLLIYFTSRLQSGVPSRFSGSGSGTDFTLTISSLQPEDFATYYCQQNATNPATFGQGTKVEIKR
B16: 1h-239-816 (other)
VL: DIQMTQSPSSLSASVGDRVTITCRASRTIYPFLEWYQQKPGKAPKLLIYFTSRLQSGVPSRFSGSGSGTDFTLTISSLQPEDFATYYCLQNVTNPATFSQGTKVEIKR
B17: 1h-239 (other)
VL: DIQMTQSPSSLSASVGDRVTITCRASQSIYPFLEWYQQKPGKAPKLLIYFTSRLQSGVPSRFSGSGSGTDFTLTISSLQPEDFATYYCQQNATNPATFGQGTKVEIKR
B18: 1h-239-807 (other)
VL: DIQMTQSPSSLSASVGDRVTITCRASRAIWPFLEWYQQKPGKAPKLLIYFTSRLQSGVPSRFSGSGSGTDFTLTISSLQPEDFATYYCLQNVTNPATFSQGTKVEIKR
B19: 1h-239-828 (other)
VL: DIQMTQSPSSLSASVGDRVTITCRASQSIYPFLEWYQQKPGKAPKLLIYFTSRLREGVPSRFSGSGSGTDFTLTISSLQPEDFATYYCLQNVTNPATFSQGTKVEIKR
B20: 1h-239-804 (other)
VL: DIQMTQSPSSLSASVGDRVTITCRASQSIYPFLEWYQQKPGKAPKLLIYFTSRLQSGVPSRFSGSGSGTDFTLTISSLQPEDFATYYCLQNVSMPATFSQGTKVEIKR
B21: 1h-239-829 (other)
VL: DIQMTQSPSSLSASVGDRVTITCRASQSIYPFLEWYQQKPGKAPKLLIYFSSRLASGVPSRFSGSGSGTDFTLTISSLQPEDFATYYCLQNVTNPATFSQGTKVEIKR
B22: 1h-239-809 (other)
VL: DIQMTQSPSSLSASVGDRVTITCRASRPIWPFLEWYQQKPGKAPKLLIYFTSRLQSGVPSRFSGSGSGTDFTLTISSLQPEDFATYYCLQNVTNPATFSQGTKVEIKR
B23: 1h-239-817 (other)
VL: DIQMTQSPSSLSASVGDRVTITCRASKPIYPFLEWYQQKPGKAPKLLIYFTSRLQSGVPSRFSGSGSGTDFTLTISSLQPEDFATYYCLQNVTNPATFSQGTKVEIKR
B24: 1h-239-824 (other)
VL: DIQMTQSPSSLSASVGDRVTITCRASQSIYPFLEWYQQKPGKAPKLLIYFTSRLRQGVPSRFSGSGSGTDFTLTISSLQPEDFATYYCLQNVTNPATFSQGTKVEIKR
B25: 1h-239-819 (other)
VL: DIQMTQSPSSLSASVGDRVTITCRASQAIWPFLEWYQQKPGKAPKLLIYFTSRLQSGVPSRFSGSGSGTDFTLTISSLQPEDFATYYCLQNVTNPATFSQGTKVEIKR
B26: 1h-239-832 (other)
VL: DIQMTQSPSSLSASVGDRVTITCRASQSIYPFLEWYQQKPGKAPKLLIYFTSYLREGVPSRFSGSGSGTDFTLTISSLQPEDFATYYCLQNVTNPATFSQGTKVEIKR
B27: 1h-239-815 (other)
VL: DIQMTQSPSSLSASVGDRVTITCRASQPIWPFLEWYQQKPGKAPKLLIYFTSRLQSGVPSRFSGSGSGTDFTLTISSLQPEDFATYYCLQNVTNPATFSQGTKVEIKR
B28: 1h-80-2 (other)
VL: DIQMTQSPSSLSASVGDRVTITCRASQRIGSNLAWYQQKPGKAPKLLIYWASLLQSGVPSRFSGSGSETDFTLTISSLQPEDFATYYCQQTRSAPFAFGQGTKVEIKR
B29: 1h-80-7 (other)
VL: DIQMTQSPSSLSASVGDRVTITCRASQRIGSNLAWYQQKPGKAPKLLIYWASLLQSGVPSRFSGSGSGSDFTLTISSLQPEDFATYYCQETRSAPFTFGQGTKVEIKR
B30: 1h-80 (other)
VL: DIQMTQSPSSLSASVGDRVTITCRASQRIGSNLAWYQQKPGKAPKLLIYWASLLQSGVPSRFSGSGSGTDFTLTISSLQPEDFATYYCQQTRSAPFTFGQGTKVEIKR
B31: 1h-79 (other)
VL: DIQMTQSPSSLSASVGDRVTITCRASQPIGHSLAWYQQKPGKAPKLLIYWASTLQSGVPSRFSGSGSGTDFTLTISSLQPEDFATYYCQQMLRTPFTFGQGTKVEIKR
B32: 1h-87 (other)
VL: DIQMTQSPSSLSASVGDRVTITCRASQSIGKSLAWYQQKPGKAPKLLIYWVSLLQSGVPSRFSGSGSGTDFTLTISSLQPEDFATYYCQQIVSRPFTFGQGTKVEIKR
B33: 1h-81 (other)
VL: DIQMTQSPSSLSASVGDRVTITCRASQEIDHGLAWYQQKPGKAPKLLIYWASRLQSGVPSRFSGSGSGTDFTLTISSLQPEDFATYYCQQVVAAPFTFGQGTKVEIKR
B34: 1h-83 (other)
VL: DIQMTQSPSSLSASVGDRVTITCRASQSIGHSLVWYQQKPGKAPKLLIYWASLLQSGVSSRFSGSGSGTDFTLTISSLQPEDFATYYCQQSRAAPFTFGQGTKVEIKR

Biological target: human CD28 (human, UniProt P10747 19-220)
Assay: cell-based or functional assay

Binder | Luciferase assay (EC50) [µM] | MLR assay (EC50) [µM]
B1 | 1.9 | 
B2 | 0.4 | 
B3 | 1 | 
B4 | 2.6 | 
B5 | 1 | 
B6 | 1.9 | 2.7
B7 | 1.9 | 
B8 | 0.57 | 1.8
B9 | 4.1 | 
B10 | 1.5 | 
B11 | 0.775 | 0.85
B12 | 0.775 | 
B13 | 0.88 | 
B14 | 0.53 | 
B15 | 2.5 | 2.4
B16 | 0.011 | 0.013
B17 | 1.3 | 

Binder | Luciferase assay (EC50) [µM] | MLR assay (EC50) [µM]
B18 | 0.007 | 0.006
B19 | 0.008 | 0.014
B20 | 0.005 | 0.003
B21 | 0.01 | 0.011
B22 | 0.006 | 0.004
B23 | 0.007 | 0.009
B24 | 0.009 | 0.006
B25 | 0.013 | 0.011
B26 | 0.012 | 0.011
B27 | 0.01 | 0.006
B28 | 0.062 | 0.55
B29 | 0.322 | 
B30 | 0.685 | 2
B31 | 3.8 | 3.2
B32 | 1.7 | 
B33 | 3.3 | 
B34 | 1.3 | 1.7
